The text below walks through data of publication PMC6121587, “In Vitro Inhibitory Mechanism Effect of TRAIP on the Function of TRAF2 Revealed by Characterization of Interaction Domains” (International Journal of Molecular Sciences, 2018).

Several values for one entry are separate records, joined by “and”; a condition that tells them apart may be missing. Identical values can stand only once.

The chains are these.
B1: TRAF1 TRAF-N coiled-coil domain (amino acids 181-244) (domain or fragment, UniProt Q13077 181-244, looked up)
chain: FMKEKLLAELEGKLRVFENIVAVLNKEVEASHLALATSIHQSQLDRERILSLEQRVVELQQTLA
notes: TNF receptor-associated factor 1 (TRAF1), TRAF-N coiled-coil domain, amino acids 181-244; also called TRAF1 TRAF-N CC
B2: TRAIP RING domain plus coiled-coil domain (TRAIP RING-CC, residues 1-157) (domain or fragment, human, UniProt Q9BWF2 1-157, looked up)
chain: MPIRALCTICSDFFDHSRDVAAIHCGHTFHLQCLIQWFETAPSRTCPQCRIQVGKRTIINKLFFDLAQEEENVLDAEFLKNELDNVRAQLSQKDKEKRDSQVIIDTLRDTLEERNATVVSLQQALGKAEMLCSTLKKQMKYLEQQQDETKQAQEEAR
notes: Exists in different forms and higher-order oligomers; calculated monomer mass with the tag 18,893 Da; not shown: His6, C-terminal, kept
B3: TRAF2 TRAF-N coiled-coil domain (amino acids 264-329) (domain or fragment, human, UniProt Q12933 264-329, looked up)
chain: AGSELLQRCESLEKKTATFENIVCVLNREVERVAMTAEACSRQHRLDQDKIEALSSKVQQLERSIG
notes: TNF receptor-associated factor 2 (TRAF2), human, TRAF-N coiled-coil domain, amino acids 264-329; Trimer by SEC; dimer and possible trimer by AUC. 'Human' is said of the TRAF2 TRAF domain in the same methods paragraph, not of this construct itself; also called TRAF2 TRAF-N CC; TRAF2 CC
B4: TRAIP coiled-coil domain (TRAIP CC, residues 72-167) (domain or fragment, human, UniProt Q9BWF2 72-167, looked up)
chain: NVLDAEFLKNELDNVRAQLSQKDKEKRDSQVIIDTLRDTLEERNATVVSLQQALGKAEMLCSTLKKQMKYLEQQQDETKQAQEEARRLRSKMKTME
notes: Trimer by SEC and MALS at high concentration, dimer by AUC at low concentration; calculated monomer mass with the tag 12,425 Da; not shown: His6, C-terminal, kept

The target in series [1] is TRAF2 TRAF domain (TRAF-N and TRAF-C) (human). The series is described as follows: SEC; single purified protein on Superdex 200 10/30, 20 mM Tris-HCl pH 8.0, 150 mM NaCl.
The target of series [2] is TRAF4 TRAF domain (TRAF-N and TRAF-C) (human). Described as above.
Series [3] deals with the molecule itself. The description is as above.
Series [4] addresses B2. Put plainly: native gel or EMSA; Native PAGE shift assay of mixtures of two purified proteins, Phast System, 8-25% gradient gel, Coomassie. As to conditions: both partners purified.
Series [5] concerns the molecule itself. The series is described as follows: AUC; sedimentation velocity, 20 °C, 2 mg/mL, 20 mM Tris-HCl pH 8.0, 150 mM NaCl, 45,000 rpm, 280 nm, SEDFIT c(s); the paper calls the TRAIP CC concentration low.
Series [6] concerns the molecule itself. Put plainly: SEC + SEC-MALS; TRAIP CC alone, high concentration; Superdex 200 10/30; MALS on mini-DAWN treos. (Size exclusion chromatography separates by hydrodynamic size, large species first.)

The stoichiometry N is the number of molecules, sites or subunits per partner or assembly. As to “TRAF2 TRAF domain (TRAF-N and TRAF-C) (domain or fragment)”, in series [1], the stoichiometry N worked out at 3.
As to “TRAF4 TRAF domain (TRAF-N and TRAF-C) (domain or fragment)”, the stoichiometry N in series [2] is 3.
Turning to B1, the “stoichiometry N” value in series [3] worked out at 3.
In the case of B2, the binding result in series [3] is reported as “binds”.
Regarding B3, the binding result in series [4] is recorded as “binds”. Moreover, the “stoichiometry N” value in series [5] was 2 and 3.
As for B4, the “stoichiometry N” value in series [6] was found to be 3; in series [5], 2.
